Source: IntAct's records for PubMed 28065597

B1: Receptor-type tyrosine-protein phosphatase R (Homo sapiens), Q15256 (parent)
chain: MRRAVCFPALCLLLNLHAAGCFSGNNDHFLAINQKKSGKPVFIYKHSQDIEKSLDIAPQKIYRHSYHSSSEAQVSKRHQIVNSAFPRPAYDPSLNLLAMDGQDLEVENLPIPAANVIVVTLQMDVNKLNITLLRIFRQGVAAALGLLPQQVHINRLIGKKNSIELFVSPINRKTGISDALPSEEVLRSLNINVLHQSLSQFGITEVSPEKNVLQGQHEADKIWSKEGFYAVVIFLSIFVIIVTCLMILYRLKERFQLSLRQDKEKNQEIHLSPITLQPALSEAKTVHSMVQPEQAPKVLNVVVDPQGRGAPEIKATTATSVCPSPFKMKPIGLQERRGSNVSLTLDMSSLGNIEPFVSIPTPREKVAMEYLQSASRILTRSQLRDVVASSHLLQSEFMEIPMNFVDPKEIDIPRHGTKNRYKTILPNPLSRVCLRPKNVTDSLSTYINANYIRGYSGKEKAFIATQGPMINTVDDFWQMVWQEDSPVIVMITKLKEKNEKCVLYWPEKRGIYGKVEVLVISVNECDNYTIRNLVLKQGSHTQHVKHYWYTSWPDHKTPDSAQPLLQLMLDVEEDRLASQGRGPVVVHCSAGIGRTGCFIATSIGCQQLKEEGVVDALSIVCQLRMDRGGMVQTSEQYEFVHHALCLYESRLSAETVQ

Variants of: B1
Details: with ret_human RET
In the case of Y249F;D554A;C588S, the “effect of a mutation on the interaction” value is reported as “disrupting interaction”.
For D554A;C588S, the “effect of a mutation on the interaction” value was “disrupting interaction”.
C588S was tested, and the “effect of a mutation on the interaction” value was “disrupting interaction”.

Variants of: B1
Details: with erbb4_human ERBB4, Q15303
D554A;C588S was tested, and the “effect of a mutation on the interaction” value was “with no effect”.
C588S was tested, and the “effect of a mutation on the interaction” value was “with no effect”.

Variants of: B1
Details: with ret_human RET
Remark: another data set of the same source
With D554A;C588S the “effect of a mutation on the interaction” value was “with no effect”.
For C588S, the “effect of a mutation on the interaction” value was “with no effect”.

Variants of: B1
Details: with igf1r_human IGF1R
In the case of D554A;C588S, the “effect of a mutation on the interaction” value is reported as “decreasing interaction”.
With C588S the “effect of a mutation on the interaction” value was “decreasing interaction”.

Variants of: B1
Details: with ron_mouse Mst1r, Q62190
ron_mouse Mst1r, Q62190, sequence (Q62190 whole entry): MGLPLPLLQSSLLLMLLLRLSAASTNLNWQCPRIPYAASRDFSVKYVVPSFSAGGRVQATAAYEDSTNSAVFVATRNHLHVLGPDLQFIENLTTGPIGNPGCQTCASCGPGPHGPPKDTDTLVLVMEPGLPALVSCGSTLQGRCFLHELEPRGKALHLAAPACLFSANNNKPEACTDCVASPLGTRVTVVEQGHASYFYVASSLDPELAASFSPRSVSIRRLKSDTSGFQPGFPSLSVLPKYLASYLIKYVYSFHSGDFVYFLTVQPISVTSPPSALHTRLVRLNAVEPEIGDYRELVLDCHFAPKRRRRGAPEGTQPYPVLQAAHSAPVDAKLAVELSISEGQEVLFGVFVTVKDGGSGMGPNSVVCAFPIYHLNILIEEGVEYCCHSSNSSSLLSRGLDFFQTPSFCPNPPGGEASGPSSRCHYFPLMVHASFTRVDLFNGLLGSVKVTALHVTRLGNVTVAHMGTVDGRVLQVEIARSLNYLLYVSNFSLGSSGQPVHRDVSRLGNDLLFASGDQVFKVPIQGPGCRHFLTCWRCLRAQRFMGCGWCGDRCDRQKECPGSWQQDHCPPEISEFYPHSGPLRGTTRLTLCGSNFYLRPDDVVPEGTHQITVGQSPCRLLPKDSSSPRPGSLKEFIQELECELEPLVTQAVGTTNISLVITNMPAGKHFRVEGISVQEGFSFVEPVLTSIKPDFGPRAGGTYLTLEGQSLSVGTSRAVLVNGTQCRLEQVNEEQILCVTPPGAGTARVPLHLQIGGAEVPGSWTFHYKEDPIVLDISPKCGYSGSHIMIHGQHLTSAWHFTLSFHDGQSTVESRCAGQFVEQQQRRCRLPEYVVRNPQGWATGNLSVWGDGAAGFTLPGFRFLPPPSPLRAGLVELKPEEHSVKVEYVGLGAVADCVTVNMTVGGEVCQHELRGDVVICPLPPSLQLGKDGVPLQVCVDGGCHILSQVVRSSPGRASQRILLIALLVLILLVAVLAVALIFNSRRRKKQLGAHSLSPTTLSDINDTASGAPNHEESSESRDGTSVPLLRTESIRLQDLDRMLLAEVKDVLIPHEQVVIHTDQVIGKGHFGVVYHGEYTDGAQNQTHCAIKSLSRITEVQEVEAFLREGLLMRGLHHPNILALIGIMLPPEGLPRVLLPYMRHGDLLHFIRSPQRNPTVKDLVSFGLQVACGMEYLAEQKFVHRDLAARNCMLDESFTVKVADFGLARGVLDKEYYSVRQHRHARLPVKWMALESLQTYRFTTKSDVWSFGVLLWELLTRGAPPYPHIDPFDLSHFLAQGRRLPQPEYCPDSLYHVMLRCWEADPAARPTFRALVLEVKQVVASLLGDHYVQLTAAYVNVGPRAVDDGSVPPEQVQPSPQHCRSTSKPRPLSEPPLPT
In the case of D554A;C588S, the “effect of a mutation on the interaction” value is reported as “disrupting interaction”.
For C588S, the “effect of a mutation on the interaction” value was “disrupting interaction”.

Variants of: B1
Details: with ntrk1_human NTRK1, P04629
ntrk1_human NTRK1, P04629, sequence (P04629 whole entry, looked up): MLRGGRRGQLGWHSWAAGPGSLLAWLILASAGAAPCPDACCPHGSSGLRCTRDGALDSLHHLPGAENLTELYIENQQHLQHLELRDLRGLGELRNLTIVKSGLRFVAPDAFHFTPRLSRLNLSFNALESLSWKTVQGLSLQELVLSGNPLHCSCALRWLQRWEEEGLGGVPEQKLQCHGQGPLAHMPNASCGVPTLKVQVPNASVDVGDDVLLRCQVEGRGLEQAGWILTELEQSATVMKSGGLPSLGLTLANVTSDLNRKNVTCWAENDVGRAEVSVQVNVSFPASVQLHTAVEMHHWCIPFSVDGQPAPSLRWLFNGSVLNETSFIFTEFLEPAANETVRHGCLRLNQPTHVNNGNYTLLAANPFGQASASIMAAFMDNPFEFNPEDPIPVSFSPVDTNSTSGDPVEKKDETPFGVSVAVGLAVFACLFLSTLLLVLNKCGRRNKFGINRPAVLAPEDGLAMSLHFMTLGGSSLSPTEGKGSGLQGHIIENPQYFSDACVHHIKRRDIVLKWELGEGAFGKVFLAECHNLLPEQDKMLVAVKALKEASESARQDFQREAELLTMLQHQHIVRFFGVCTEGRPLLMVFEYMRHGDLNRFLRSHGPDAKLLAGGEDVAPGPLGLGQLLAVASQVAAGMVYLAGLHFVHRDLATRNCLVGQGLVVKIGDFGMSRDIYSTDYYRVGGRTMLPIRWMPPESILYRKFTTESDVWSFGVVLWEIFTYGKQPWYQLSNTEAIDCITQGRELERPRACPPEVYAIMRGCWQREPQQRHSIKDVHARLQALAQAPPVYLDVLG
D554A;C588S was tested, and the “effect of a mutation on the interaction” value was “with no effect”.
For C588S, the “effect of a mutation on the interaction” value was “with no effect”.

Variants of: B1
Details: with tie2_human TEK
With D554A;C588S the “effect of a mutation on the interaction” value was “decreasing interaction”.
For C588S, the “effect of a mutation on the interaction” value was “decreasing interaction”.

Variants of: B1
Details: with ron_mouse Mst1r
In the case of D554A;C588S, the “effect of a mutation on the interaction” value is reported as “increasing interaction”.
C588S was tested, and the “effect of a mutation on the interaction” value was “increasing interaction”.

Variants of: B1
Details: with fgfr2_human FGFR2, P21802
fgfr2_human FGFR2, P21802, sequence (P21802 whole entry, looked up): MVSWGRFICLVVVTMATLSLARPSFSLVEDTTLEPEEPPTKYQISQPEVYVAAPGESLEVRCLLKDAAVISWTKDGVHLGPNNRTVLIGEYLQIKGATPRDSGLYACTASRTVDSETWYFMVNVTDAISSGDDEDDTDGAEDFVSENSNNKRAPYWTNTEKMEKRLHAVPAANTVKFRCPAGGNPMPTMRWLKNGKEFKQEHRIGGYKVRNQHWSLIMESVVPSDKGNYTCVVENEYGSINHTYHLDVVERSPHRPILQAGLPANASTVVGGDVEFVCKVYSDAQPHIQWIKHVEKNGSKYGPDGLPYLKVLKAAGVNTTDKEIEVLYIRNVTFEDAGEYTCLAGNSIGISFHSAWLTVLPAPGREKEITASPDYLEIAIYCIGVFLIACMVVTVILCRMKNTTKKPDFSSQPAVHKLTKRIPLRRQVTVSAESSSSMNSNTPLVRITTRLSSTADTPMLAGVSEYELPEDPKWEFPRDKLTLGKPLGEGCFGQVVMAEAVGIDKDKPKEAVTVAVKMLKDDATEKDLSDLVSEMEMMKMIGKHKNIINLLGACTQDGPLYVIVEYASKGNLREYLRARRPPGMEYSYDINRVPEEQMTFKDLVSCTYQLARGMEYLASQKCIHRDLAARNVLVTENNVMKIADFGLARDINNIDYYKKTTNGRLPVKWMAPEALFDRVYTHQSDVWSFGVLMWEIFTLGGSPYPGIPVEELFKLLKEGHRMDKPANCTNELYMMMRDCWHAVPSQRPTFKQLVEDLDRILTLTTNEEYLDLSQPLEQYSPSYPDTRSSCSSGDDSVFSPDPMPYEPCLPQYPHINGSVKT
With D554A;C588S the “effect of a mutation on the interaction” value was “decreasing interaction”.
With C588S the “effect of a mutation on the interaction” value was “disrupting interaction”.

Variants of: B1
Details: with fgfr4_human FGFR4, P22455
fgfr4_human FGFR4, P22455, sequence (P22455 whole entry, looked up): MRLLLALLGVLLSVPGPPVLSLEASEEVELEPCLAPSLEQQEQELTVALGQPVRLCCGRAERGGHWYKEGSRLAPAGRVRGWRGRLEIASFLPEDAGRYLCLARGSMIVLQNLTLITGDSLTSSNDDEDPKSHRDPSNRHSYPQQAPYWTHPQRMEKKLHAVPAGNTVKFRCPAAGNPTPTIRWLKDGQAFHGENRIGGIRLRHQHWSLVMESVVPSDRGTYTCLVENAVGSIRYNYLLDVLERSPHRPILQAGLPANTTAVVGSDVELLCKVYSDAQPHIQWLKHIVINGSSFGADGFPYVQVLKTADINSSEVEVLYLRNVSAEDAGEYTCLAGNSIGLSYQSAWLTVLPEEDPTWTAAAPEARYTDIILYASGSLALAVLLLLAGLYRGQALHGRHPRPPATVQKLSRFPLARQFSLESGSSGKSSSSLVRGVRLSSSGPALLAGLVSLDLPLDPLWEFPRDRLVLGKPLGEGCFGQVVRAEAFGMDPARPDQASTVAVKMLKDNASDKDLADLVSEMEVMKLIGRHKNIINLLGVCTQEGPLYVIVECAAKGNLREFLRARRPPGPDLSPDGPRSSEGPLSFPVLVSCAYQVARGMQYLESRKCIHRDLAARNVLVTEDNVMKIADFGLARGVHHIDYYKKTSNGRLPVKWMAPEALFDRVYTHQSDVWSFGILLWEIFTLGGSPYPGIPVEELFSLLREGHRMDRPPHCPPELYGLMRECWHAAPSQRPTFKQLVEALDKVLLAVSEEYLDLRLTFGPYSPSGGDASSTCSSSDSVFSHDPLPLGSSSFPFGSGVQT
For D554A;C588S, the “effect of a mutation on the interaction” value was “decreasing interaction”.
For C588S, the “effect of a mutation on the interaction” value was “decreasing interaction”.

Variants of: B1
Details: with vgfr2_human KDR
D554A;C588S was tested, and the “effect of a mutation on the interaction” value was “with no effect”.
C588S was tested, and the “effect of a mutation on the interaction” value was “with no effect”.

Variants of: B1
Details: with igf1r_human IGF1R
Remark: another data set of the same source
With D554A;C588S the “effect of a mutation on the interaction” value was “with no effect”.
For C588S, the “effect of a mutation on the interaction” value was “with no effect”.
